Results reported in patent US20200199241A1 (Chugai, published 2020).
Changes are numbered by the printed parent chain.

B1: IgG1-F1122 (antibody)
heavy: QVQLQESGPGLVKPSETLSLTCAVSGHSISHDHAWSWVRQPPGEGLEWIGFISYSGITNYNPSLQGRVTISRDNSKNTLYLQMNSLRAEDTAVYYCARSLARTTAMDYWGEGTLVTVSSASTKGPSVFPLAPSSKSTSGGTAALGCLVKDYFPEPVTVSWNSGALTSGVHTFPAVLQSSGLYSLSSVVTVPSSSLGTQTYICNVNHKPSNTKVDKKVEPKSCDKTHTCPPCPAPELLGGPSVFLFPPKPKDVLYISRTPEVTCVVVDVSHEDPEVKFNWYVDGVEVHNAKTKPREEQYNSTYRVVSVLQPLHADWLNGKEYKCKVSNKALPAPIEKTISKAKGQPREPQVYTLPPSRDELTKNQVSLTCLVKGFYPSDIAVEWESNGQPENNYKTTPPVLDSDGSFFLYSKLTVDKSRWQQGNVFSCSVMHEALHYHVTRKSLSLSP
light: not shown
notes: EU numbering; copies: 2 + 2
B2: IgG1-F1126 (antibody)
heavy: B1 heavy with V252T, Q309A, P310V, A313Q, R440Q
light: not shown
notes: EU numbering; copies: 2 + 2
B3: IgG1-F1152 (antibody)
heavy: B1 heavy with L237R, S241K, V252T, P310V, S426N, V438Y, R440Q
light: not shown
notes: EU numbering; copies: 2 + 2
B4: IgG1-F1135 (antibody)
heavy: B1 heavy with L237R, S241K, V252T, Q309T, P310V, A313Q, R440Q, S442E
light: not shown
notes: EU numbering; copies: 2 + 2
B5: IgG1-F1162 (antibody)
heavy: B1 heavy with P240D, V252Y, Q309T, P310V, A313Q, R440Q
light: not shown
notes: EU numbering; copies: 2 + 2
B6: IgG1-F1154 (antibody)
heavy: B1 heavy with L237R, S241K, S426N, R440Q
light: not shown
notes: EU numbering; copies: 2 + 2
B7: IgG1-F1200 (antibody)
heavy: B1 heavy with S256T, Q309T, P310V, A313Q, S442E
light: not shown
notes: EU numbering; copies: 2 + 2
B8: IgG1-F1164 (antibody)
heavy: B1 heavy with P240D, V252Y, P310V, R440Q
light: not shown
notes: EU numbering; copies: 2 + 2
B9: IgG1-F1157 (antibody)
heavy: B1 heavy with V252T, Q309T, P310V, A313Q, V438Y, S442E
light: not shown
notes: EU numbering; copies: 2 + 2
B10: IgG1-F1128 (antibody)
heavy: B1 heavy with V252T, Q309T, P310V, A313H, R440Q
light: not shown
notes: EU numbering; copies: 2 + 2
B11: IgG1-F1140 (antibody)
heavy: B1 heavy with V252T, Q309T, P310V, A313Q, V424E, S426R, S442E
light: not shown
notes: EU numbering; copies: 2 + 2
B12: IgG1-F1151 (antibody)
heavy: B1 heavy with L237R, S241K, V252T, Q309T, P310V, A313Q, S426N, V438Y, R440Q
light: not shown
notes: EU numbering; copies: 2 + 2
B13: IgG1-F1183 (antibody)
heavy: B1 heavy with V252T, Y254M, Q309T, P310V, A313Q, E382A, M430L, Y436S, V438Y, R440Q
light: not shown
notes: EU numbering; copies: 2 + 2
B14: IgG1-F1190 (antibody)
heavy: B1 heavy with V252T, Q309T, P310V, A313Q, H435E, S442E
light: not shown
notes: EU numbering; copies: 2 + 2
B15: IgG1-F1129 (antibody)
heavy: B1 heavy with V252T, P310V, A313H, R440Q
light: not shown
notes: EU numbering; copies: 2 + 2
B16: IgG1-F1147 (antibody)
heavy: B1 heavy with V252T, P310V, V438Y, S442E
light: not shown
notes: EU numbering; copies: 2 + 2
B17: IgG1-F1142 (antibody)
heavy: B1 heavy with L237R, S241K, V252T, Q309T, P310V, A313Q, V424E, S426R, S442E
light: not shown
notes: EU numbering; copies: 2 + 2
B18: IgG1-F1178 (antibody)
heavy: B1 heavy with V252T, Y254M, V261I, Q309T, P310F, A313Q, M430L, Y436N, V438Y, R440Q
light: not shown
notes: EU numbering; copies: 2 + 2
B19: IgG1-F1161 (antibody)
heavy: B1 heavy with V252T, Y254M, Q309T, P310V, A313Q, I334V, S426N, V438Y, R440Q
light: not shown
notes: EU numbering; copies: 2 + 2
B20: IgG1-F1160 (antibody)
heavy: B1 heavy with V252T, Y254M, Q309T, P310F, A313Q, S426N, V438Y, R440Q
light: not shown
notes: EU numbering; copies: 2 + 2
B21: IgG1-F1144 (antibody)
heavy: B1 heavy with L237R, S241K, S442E
light: not shown
notes: EU numbering; copies: 2 + 2
B22: IgG1-F1130 (antibody)
heavy: B1 heavy with V252T, Q309A, P310V, R440Q
light: not shown
notes: EU numbering; copies: 2 + 2
B23: IgG1-F1133 (antibody)
heavy: B1 heavy with L237R, S241K, V252T, Q309T, P310V, A313Q, S426R, R440Q
light: not shown
notes: EU numbering; copies: 2 + 2
B24: IgG1-F1137 (antibody)
heavy: B1 heavy with L237R, S241K, V252T, Q309T, P310V, A313Q, V424S, S426R, R440Q
light: not shown
notes: EU numbering; copies: 2 + 2
B25: IgG1-F1148 (antibody)
heavy: B1 heavy with L237R, S241K, V252T, P310V, V438Y, S442E
light: not shown
notes: EU numbering; copies: 2 + 2
B26: IgG1-F1201 (antibody)
heavy: B1 heavy with T258E, Q309T, P310V, A313Q, S442E
light: not shown
notes: EU numbering; copies: 2 + 2
B27: IgG1-F1131 (antibody)
heavy: B1 heavy with L237R, S241K, V252T, Q309T, P310V, A313Q, V424E, R440Q
light: not shown
notes: EU numbering; copies: 2 + 2
B28: IgG1-F1132 (antibody)
heavy: B1 heavy with L237R, S241K, V252T, Q309T, P310V, A313Q, V424S, R440Q
light: not shown
notes: EU numbering; copies: 2 + 2
B29: IgG1-F1185 (antibody)
heavy: B1 heavy with V252T, Y254M, Q309A, P310V, A313Q, E382A, M430L, Y436S, V438Y, R440Q
light: not shown
notes: EU numbering; copies: 2 + 2
B30: IgG1-F1197 (antibody)
heavy: B1 heavy with V252T, S256T, Q309T, P310V, A313Q, S442E
light: not shown
notes: EU numbering; copies: 2 + 2
B31: IgG1-F1134 (antibody)
heavy: B1 heavy with L237R, S241K, V252T, Q309T, P310V, A313Q
light: not shown
notes: EU numbering; copies: 2 + 2
B32: IgG1-F1153 (antibody)
heavy: B1 heavy with L237R, S241K, P310V, S426N, R440Q
light: not shown
notes: EU numbering; copies: 2 + 2
B33: IgG1-F1125 (antibody)
heavy: B1 heavy with V252T, P310V, A313Q, R440Q
light: not shown
notes: EU numbering; copies: 2 + 2
B34: IgG1-F1198 (antibody)
heavy: B1 heavy with V252T, T258E, Q309T, P310V, A313Q, S442E
light: not shown
notes: EU numbering; copies: 2 + 2
B35: IgG1-F1191 (antibody)
heavy: B1 heavy with V252T, Q309T, P310V, A313Q, T439A, S442E
light: not shown
notes: EU numbering; copies: 2 + 2
B36: IgG1-F1199 (antibody)
heavy: B1 heavy with V252T, S256T, T258E, Q309T, P310V, A313Q, S442E
light: not shown
notes: EU numbering; copies: 2 + 2
B37: IgG1-F1139 (antibody)
heavy: B1 heavy with L237R, S241K, V252T, Q309T, P310V, A313Q, S426N, R440Q
light: not shown
notes: EU numbering; copies: 2 + 2
B38: IgG1-F1202 (antibody)
heavy: B1 heavy with S256T, T258E, Q309T, P310V, A313Q, S442E
light: not shown
notes: EU numbering; copies: 2 + 2
B39: IgG1-F1194 (antibody)
heavy: B1 heavy with V252T, Q309T, P310V, A313Q, K441D, S442E
light: not shown
notes: EU numbering; copies: 2 + 2
B40: IgG1-F1195 (antibody)
heavy: B1 heavy with V252T, Q309T, P310V, A313Q, S442E, L443A
light: not shown
notes: EU numbering; copies: 2 + 2
B41: IgG1-F1124 (antibody)
heavy: B1 heavy with S442E
light: not shown
notes: EU numbering; copies: 2 + 2
B42: IgG1-F1158 (antibody)
heavy: B1 heavy with L237R, S241K, V252T, Q309T, P310V, A313Q, V438Y, S442E
light: not shown
notes: EU numbering; copies: 2 + 2
B43: IgG1-F1143 (antibody)
heavy: B1 heavy with L237R, S241K, V252T, Q309T, P310V, A313Q, V424S, S426R, S442E
light: not shown
notes: EU numbering; copies: 2 + 2
B44: IgG1-F1163 (antibody)
heavy: B1 heavy with P240D, V252Y, P310V, V438Y, R440Q
light: not shown
notes: EU numbering; copies: 2 + 2
B45: IgG1-F1141 (antibody)
heavy: B1 heavy with V252T, Q309T, P310V, A313Q, V424S, S426R, S442E
light: not shown
notes: EU numbering; copies: 2 + 2
B46: IgG1-F1127 (antibody)
heavy: B1 heavy with V252T, Q309T, P310V, R440Q
light: not shown
notes: EU numbering; copies: 2 + 2
B47: IgG1-F1196 (antibody)
heavy: B1 heavy with V252T, Q309T, P310V, A313Q, S442E, L443E
light: not shown
notes: EU numbering; copies: 2 + 2
B48: IgG1-F1138 (antibody)
heavy: B1 heavy with L237R, S241K, V252T, Q309T, P310V, A313Q, S442E
light: not shown
notes: EU numbering; copies: 2 + 2
B49: IgG1-F1184 (antibody)
heavy: B1 heavy with V252T, Y254M, Q309A, P310V, A313Q, M430L, Y436S, V438Y, R440Q
light: not shown
notes: EU numbering; copies: 2 + 2
B50: IgG1-F1136 (antibody)
heavy: B1 heavy with L237R, S241K, V252T, Q309T, P310V, A313Q, V424E, S426R, R440Q
light: not shown
notes: EU numbering; copies: 2 + 2
B51: IgG1-F1123 (antibody)
heavy: B1 heavy with R440Q, S442E
light: not shown
notes: EU numbering; copies: 2 + 2
B52: IgG1-F1145 (antibody)
heavy: B1 heavy with P310V, S442E
light: not shown
notes: EU numbering; copies: 2 + 2
B53: IgG1-F1146 (antibody)
heavy: B1 heavy with L237R, S241K, P310V, S442E
light: not shown
notes: EU numbering; copies: 2 + 2
B54: IgG1-F1188 (antibody)
heavy: B1 heavy with V252T, Y254M, Q309A, P310V, A313Q, E382A, Y436H, V438Y, R440Q
light: not shown
notes: EU numbering; copies: 2 + 2
B55: IgG1-F1165 (antibody)
heavy: B1 heavy with P240D, V252Y, R440Q
light: not shown
notes: EU numbering; copies: 2 + 2

Molecular target: T1, soluble human FcRn complexed with β2-microglobulin (human, UniProt P61769 21-119, limits assumed)
T1 construct: also called hFcRn
Assay: Biacore SPR, pH 7.0;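 note: test antibodies captured on a Protein L chip with human FcRn flowed over as analyte, KD obtained as the ratio of dissociation to association rate constants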

T1 sequence (chain, as listed by the source limits assumed, chain 1 of 2): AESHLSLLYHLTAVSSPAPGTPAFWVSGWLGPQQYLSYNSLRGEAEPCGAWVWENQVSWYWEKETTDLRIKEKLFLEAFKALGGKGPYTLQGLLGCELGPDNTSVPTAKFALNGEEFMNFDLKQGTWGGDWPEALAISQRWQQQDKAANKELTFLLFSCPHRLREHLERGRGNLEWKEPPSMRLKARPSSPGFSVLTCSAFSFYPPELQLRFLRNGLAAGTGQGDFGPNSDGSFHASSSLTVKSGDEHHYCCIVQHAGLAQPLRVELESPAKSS
T1 sequence (P61769 21-119 limits assumed, chain 2 of 2): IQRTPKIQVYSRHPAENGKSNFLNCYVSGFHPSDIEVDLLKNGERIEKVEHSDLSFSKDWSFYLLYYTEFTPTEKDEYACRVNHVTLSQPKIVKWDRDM

Binder	Kd
B1	13.7 nM
B2	89.5 nM
B3	73.8 nM
B4	126 nM
B5	343 nM
B6	13.4 nM
B7	126 nM
B8	69.6 nM
B9	209 nM
B10	117 nM
B11	162 nM
B12	251 nM
B13	1280 nM
B14	240 nM
B15	44.8 nM
B16	71.9 nM
B17	187 nM
B18	872 nM
B19	1070 nM
B20	288 nM
B21	14.4 nM
B22	55.4 nM
B23	158 nM
B24	158 nM
B25	76.3 nM
B26	107 nM
B27	129 nM
B28	140 nM

Binder	Kd
B29	917 nM
B30	94.6 nM
B31	166 nM
B32	48.5 nM
B33	51.8 nM
B34	78.3 nM
B35	211 nM
B36	62.5 nM
B37	152 nM
B38	88.1 nM
B39	155 nM
B40	176 nM
B41	12.2 nM
B42	244 nM
B43	198 nM
B44	154 nM
B45	177 nM
B46	79.4 nM
B47	151 nM
B48	165 nM
B49	1000 nM
B50	163 nM
B51	9.55 nM
B52	52.3 nM
B53	62.4 nM
B54	1720 nM
B55	16.3 nM
